Series [1] has as its target T1, pvLDH (Plasmodium vivax lactate dehydrogenase) (Plasmodium vivax, UniProt Q4PRK9 Q4PRK9:1-316).
The target of series [2] is pfLDH (Plasmodium falciparum lactate dehydrogenase) (Plasmodium falciparum, UniProt Q27743 Q27743:1-316). Briefly: fluorescence bead assay, same buffer; binding also seen by EMSA. Particulars: chain copies: 4 inferred; label: FAM (fluorescence assay); Loop 1, G-C rich stem, Loop 2 (Mfold). Here is the method: A mixture of 16 μg of pvLDH and 10 μL of magnetic beads was incubated for one hour in 100 μL of binding buffer (20 mM Tris, 50 mM NaCl, 5 mM KCl, 5 mM MgCl2, pH 8.0), followed by washing twice with the binding buffer to remove unbound pvLDH. Then, the beads were incubated for one hour with various concentrations of FAM-labeled aptamers. The aptamers which were not reacted with pvLDH were removed by washing.
Only the FAM-labeled ssDNA aptamer which was bound to pvLDH immobilized to the magnetic beads was separated using a magnet and quantitatively analyzed by fluorescence assay (1420 Victor multilabel counter, PerkinElmer, USA). […] Kd values were also determined for pfLDH in the same manner.
In general terms: In EMSA bound probe runs differently from free probe, usually more slowly.

Series [3] has as its target T1, pvLDH (Plasmodium vivax lactate …). Description: EMSA. Particulars: tags: (His)6-tag, pET28a, E. coli BL21(DE3); chain copies: 4 inferred.

B1: Aptamer #2 (ssDNA)
DNA: GAACTCATTGGCTGGAGGCGGCAGTACCGCTTGAGTTC
What is called Kd is a measure of binding affinity in units of concentration. Lower therefore signals higher affinity. As to B1, the Kd in series [1] worked out at 31.7 nM; in series [2], 49.6 nM.

B2: Aptamer #1 (ssDNA)
DNA: GTTCGATTGGATTGTGCCGGAAGTGCTGGCTCGAAC
Consider B2, for which the Kd in series [1] was determined as 16.8 nM; in series [2] it was 38.7 nM.

B3: Aptamer #1 loop 1 mutant (ssDNA)
DNA: GTTCGACCAAATTGTGCCGGAAGTGCTGGCTCGAAC
Take B3: in series [3], the binding result is “no binding”.

B4: Aptamer #1 loop 2 mutant (ssDNA)
DNA: GTTCGATTGGATTGTGCCGGAGACGCTGGCTCGAAC
As to B4, in series [3], the binding result was “no binding”.

These data come from patent US20120316325, “DNA APTAMER […] BINDING TO pLDH (PLASMODIUM LACTATE DEHYDROGENASE)” (POSTECH ACADEMY-INDUSTRY FOUNDATION, published 2012).
